Source: doi:10.1101/2020.08.14.248047v1

Substrate: O=C(CCc1ccc(O)cc1)c1c(O)cc(O)cc1O[C@@H]1O[C@H](CO)[C@@H](O)[C@H](O)[C@H]1O
Experiment: cells, lysate or membranes
Settings: Xenopus oocytes, pH 5.0, 15 min uptake, cumulative transport assay

B1: PUP8 (AtPUP8) (Arabidopsis thaliana) (protein)
chain: MEITQVIYVNDHNNIEANLTGQEEMNTTMEIESSSVPQSKNYKKWLRISIYVFFVLACQALSTILGRVYYENGGKSTWMGTLVQLIGFPVLFLFRFFSQTKNPKPTEADFRKFSSFTILGSVYIVTGLLVSANSYMSSVGLLYLPVSTFSLILASQLAFTAFFSYFLNSQKFTPFIVNSLFLLTISSALLVVNTDSENTAKVSRVKYVIGIICTIGASAGIGLLLSLVQLILRKVLKKQTFSTVTDLVAYQSLVASCVVLIGLFASGEWKTLTSEMENYKLGKVPYVMTLASIAISWQVYTIGVVGLIFESSSVFSNSITAVGLPIVPVVAVIVFHDKMNASKIFSIILAIWGFISFVYQHYLDEKKLKTSHTSPVGDPHLLPAEEGHTNIHSV
Question: With B1 as the protein, how does the Km read?
Answer: 296 ± 39 µM
